Data reported in paper PMC4601027, “Structural Analysis of the Pin1-CPEB1 interaction and its potential role in CPEB1 degradation” (Scientific Reports, 2015).
Values belong to the molecule of their own block, whether it stands above or below them.

Biological target: Pin1 WW domain
Assay: ITC titration of unphosphorylated CPEB1 N-terminal fragments with Pin1 WW domain
Format: binding
Conditions: Pin1 WW domain as titrant, fragment as titrate, titrations could not be efficiently saturated, data not shown
Description: CPEB1 proteins display high sequence conservation in vertebrates (Supplementary Fig.1). To gain insight into the association of Pin1 with CPEB1 in the basal state, we prepared two recombinant fragments named NF1 (88–183) and NF2 (196–293), selected from the N-terminal region of CPEB1 (Fig. 1a). The boundaries of these constructs were chosen to be similar to that used by Nechama et al.[14], and were extended to include Ser210, known to be essential for degradation after phosphorylation by Cdc2[9]. Since target recognition of Pin1 is achieved by the interaction of the WW domain with the protein partners, we prepared an ^15N-labeled WW domain sample and monitored the chemical shift perturbations induced in the WW domain by the presence of the ligands (1:1 WW: ligand ratio) using HSQC experiments (Fig. 1b,c). These experiments reveal that, despite the low affinity associations, residues of the WW domain are clearly affected by the presence of the CPEB 1 fragments. Attempts to saturate the NMR titration using high ligand excess were precluded due to the aggregation tendency of the NF1 and NF2 fragments. […]
ITC measurements were performed using a nano ITC calorimeter (TA Instruments) at 12 °C or 25 °C. […] Protein concentration was measured in a NanoDrop™ 2000 measuring the UV absorption at 280 nm. Peptide concentration was determined by amino acid analysis. […]

binding affinity to Pin1 WW domain: high μM up to the mM range
B1: NF2: recombinant unphosphorylated fragment (196–293) of the N-terminal region of CPEB1 Isoform 1 (Uniprot Q9BZB8) (protein, UniProt Q9BZB8 196-293, looked up, fragment)
chain: DHLSDLISSLRISPPLPFLSLSGGGPRDPLKMGVGSRMDQEQAALAAVTPSPTSASKRWPGASVWPSWDLLEAPKDPFSIEREARLHRQAAAVNEATC

binding affinity to Pin1 WW domain: high μM up to the mM range
B2: NF1: recombinant unphosphorylated fragment (88–183) of the N-terminal region of CPEB1 Isoform 1 (Uniprot Q9BZB8) (protein, UniProt Q9BZB8 88-183, looked up, fragment)
chain: GLPDANDLCLGLQSLSLTGWDRPWSTQDSDSSAQSSTHSVLSMLHNPLGNVLGKPPLSFLPLDPLGSDLVDKFPAPSVRGSRLDTRPILDSRSSSP
